Experimental data as given in patent publication US9187525B2, “Methods of treating ophthalmic diseases using NPR-B agonists” (Shire Orphan Therapies GmbH, dated 2015).
Numbered stars: 1 amine (or outer) side, 2 acyl side, 3 side chain; on linkers, the order of the positions; unused ones are H or OH. Square brackets hold non-standard residues; d marks the D form. Ends that are not written are not given here. * marks the point of attachment. Dtp = (R)-2,2-dimethylthiazolidine-4-carboxylic acid, CC1(C)SC[C@@H](C(=O)[*:2])N1[*:1]; Ebe = (R)-2-amino-3-(methylsulfanyl)propanoic acid, CSC[C@H](N[*:1])C(=O)[*:2]; Sni = (S)-nipecotic acid, O=C([C@H]1CCCN([*:1])C1)[*:2]; Pro(trans-4-Ph) = O=C(O)[C@@H]1C[C@@H](c2ccccc2)CN1; Azetidine3carboxylic = O=C(C1CN([*:1])C1)[*:2]; Phe(3-Cl) = N[C@@H](Cc1cccc(Cl)c1)C(=O)O; Pro(cis-4-F) = O=C(O)[C@@H]1C[C@H](F)CN1; Pro(4S-NH2) = N[C@@H]1CN[C@H](C(=O)O)C1; cisHyp = O=C(O)[C@@H]1C[C@H](O)CN1; Hyp = O=C(O)[C@@H]1C[C@@H](O)CN1; NMeF = CN[C@@H](Cc1ccccc1)C(=O)O; tBuAla = CC(C)(C)C[C@H](N)C(=O)O; Cha = N[C@@H](CC1CCCCC1)C(=O)O; NMeL = CN[C@@H](CC(C)C)C(=O)O; d(αMeP) = C[C@]1(C(=O)O)CCCN1; hLeu = CC(C)CC[C@H](N)C(=O)O; Nle = CCCC[C@H](N)C(=O)O; Octanoyl = CCCCCCCC(=O)*; Thz = O=C(O)[C@@H]1CSCN1; Nva = CCC[C@H](N)C(=O)O; dAze = O=C(O)[C@H]1CCN1; Hexanoyl = CCCCCC(=O)*; Ac3c = NC1(C(=O)O)CC1; Aib = CC(C)(N)C(=O)O; Occ = octanoic acid; Sar = CNCC(=O)O

T1: natriuretic peptide receptor-B (human)
T1 chain: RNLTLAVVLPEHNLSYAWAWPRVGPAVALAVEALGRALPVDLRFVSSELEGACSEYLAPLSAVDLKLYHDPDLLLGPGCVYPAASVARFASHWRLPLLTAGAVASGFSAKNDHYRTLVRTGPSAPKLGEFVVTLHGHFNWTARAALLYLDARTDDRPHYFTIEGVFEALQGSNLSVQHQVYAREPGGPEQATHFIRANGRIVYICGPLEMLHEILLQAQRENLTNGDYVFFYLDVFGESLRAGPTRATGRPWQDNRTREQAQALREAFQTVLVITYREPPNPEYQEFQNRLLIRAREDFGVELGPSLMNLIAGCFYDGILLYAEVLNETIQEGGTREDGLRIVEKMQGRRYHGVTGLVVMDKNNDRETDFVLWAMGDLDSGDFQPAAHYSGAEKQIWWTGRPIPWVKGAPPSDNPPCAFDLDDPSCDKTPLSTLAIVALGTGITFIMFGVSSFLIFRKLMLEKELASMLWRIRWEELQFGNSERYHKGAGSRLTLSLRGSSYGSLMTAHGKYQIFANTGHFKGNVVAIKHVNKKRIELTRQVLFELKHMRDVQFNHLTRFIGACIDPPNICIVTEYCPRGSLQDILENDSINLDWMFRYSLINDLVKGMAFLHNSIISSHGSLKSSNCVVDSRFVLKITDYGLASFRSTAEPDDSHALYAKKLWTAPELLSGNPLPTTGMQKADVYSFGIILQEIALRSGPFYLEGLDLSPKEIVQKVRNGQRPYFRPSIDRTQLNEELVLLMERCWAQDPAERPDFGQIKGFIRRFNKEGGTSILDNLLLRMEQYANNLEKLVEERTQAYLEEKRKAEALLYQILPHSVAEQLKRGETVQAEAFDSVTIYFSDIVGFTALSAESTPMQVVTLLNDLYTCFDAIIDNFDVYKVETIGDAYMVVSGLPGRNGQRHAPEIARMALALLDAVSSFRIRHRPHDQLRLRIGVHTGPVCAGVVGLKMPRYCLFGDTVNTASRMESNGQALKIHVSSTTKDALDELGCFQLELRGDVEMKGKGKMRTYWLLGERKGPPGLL

B1: JAL-0979 (peptide)
peptide: [Occ]AFGL[Dtp]LDRI-NH2
modifications: not fully specified (residue 2); printed as Occ-ala-Phe-Gly-Leu-Dtp-Leu-Asp-Arg-Ile-NH2
B2: JAL-0894 (peptide)
peptide: Octanoyl-AFGLPIDRI-NH2
modifications: not fully specified (some residues); printed as Occ-ala-Phe-Gly-Leu-Pro-Ile-Asp-Arg-Ile-NH2
B3: JAL-0985 (peptide)
peptide: [Occ][Azetidine3carboxylic]FGLPLDRI-NH2
B4: JAL-0945 (peptide)
peptide: [Occ][dA]F[Ac3c]LPLDRI-NH2
B5: JAL-0954 (peptide)
peptide: [Occ][dA][NMeF]GLP[NMeL]DRI-NH2
B6: JAL-0903 (peptide)
peptide: Octanoyl-AFG[tBuAla]PLDRI-NH2
modifications: not fully specified (some residues); printed as Occ-ala-Phe-Gly-Npg-Pro-Leu-Asp-Arg-Ile-NH2
B7: JAL-0533 (peptide)
peptide: Hexanoyl-[Ebe][dP]FGLPIDRIS[Ebe]-NH2
B8: JAL-0946 (peptide)
peptide: [Occ][dA][Phe(3-Cl)]GLPLDRI-NH2
B9: JAL-0955_01 (peptide)
peptide: [Occ][dP]FGLP[NMeL]DRI-NH2
B10: JAL-0959 (peptide)
peptide: [Occ][dA]FGLP[hLeu]DRI-NH2
B11: JAL-0958_01 (peptide)
peptide: [Occ][Sni][NMeF]GLP[NMeL]DRI-NH2
B12: JAL-0898 (peptide)
peptide: Octanoyl-AFGL[Hyp]LDRI-NH2
modifications: not fully specified (some residues); printed as Occ-ala-Phe-Gly-Leu-Hyp-Leu-Asp-Arg-Ile-NH2
B13: JAL-0974 (peptide)
peptide: [Occ]AFGL[Pro(4S-NH2)]LDRI-NH2
modifications: not fully specified (residue 2); printed as Occ-ala-Phe-Gly-Leu-Apr-Leu-Asp-Arg-Ile-NH2
B14: JAL-0962 (peptide)
peptide: [Occ][dA]FGL[d(αMeP)]LDRI-NH2
B15: JAL-0944 (peptide)
peptide: [Occ][dA]F[dA]LPLDRI-NH2
B16: JAL-0953 (peptide)
peptide: [Occ][dAze]FGLPLDRI-NH2
B17: JAL-0929 (peptide)
peptide: [Occ]AFGLPLTRI-NH2
modifications: not fully specified (residue 2); printed as Occ-ala-Phe-Gly-Leu-Pro-Leu-Thr-Arg-Ile-NH2
B18: JAL-0975 (peptide)
peptide: [Occ]AFGL[Pro(trans-4-Ph)]LDRI-NH2
modifications: not fully specified (residue 2); printed as Occ-ala-Phe-Gly-Leu-Eay-Leu-Asp-Arg-Ile-NH2
B19: JAL-0942 (peptide)
peptide: [Occ]AFG[Nle]PLDRI-NH2
modifications: not fully specified (residue 2); printed as Occ-ala-Phe-Gly-Nle-Pro-Leu-Asp-Arg-Ile-NH2
B20: JAL-0978 (peptide)
peptide: [Occ]AFGL[Pro(cis-4-F)]LDRI-NH2
modifications: not fully specified (residue 2); printed as Occ-ala-Phe-Gly-Leu-Fpr-Leu-Asp-Arg-Ile-NH2
B21: JAL-0967_01 (peptide)
peptide: [Occ][Sni][NMeF]GLPLDRI-NH2
B22: JAL-0906 (peptide)
peptide: [Occ]AXGLPLDRI-NH2
modifications: not fully specified (residues 2, 3); printed as Occ-ala-Nmf-Gly-Leu-Pro-Leu-Asp-Arg-Ile-NH2
B23: JAL-0924 (peptide)
peptide: [Occ]AFGLPLNRI-NH2
modifications: not fully specified (residue 2); printed as Occ-ala-Phe-Gly-Leu-Pro-Leu-Asn-Arg-Ile-NH2
B24: JAL-0940 (peptide)
peptide: [Occ]AFG[Cha]PLDRI-NH2
modifications: not fully specified (residue 2); printed as Occ-ala-Phe-Gly-Cha-Pro-Leu-Asp-Arg-Ile-NH2
B25: JAL-0956 (peptide)
peptide: [Occ][Sni]FGLP[NMeL]DRI-NH2
B26: JAL-0950 (peptide)
peptide: [Occ][Sar]FGLPLDRI-NH2
B27: JAL-0921 (peptide)
peptide: [Occ]AFGLPLD[Nmr]I-NH2
modifications: not fully specified (residue 2); printed as Occ-ala-Phe-Gly-Leu-Pro-Leu-Asp-Nmr-Ile-NH2
B28: JAL-0943 (peptide)
peptide: [Occ]AF[Aib]LPLDRI-NH2
modifications: not fully specified (residue 2); printed as Occ-ala-Phe-Aib-Leu-Pro-Leu-Asp-Arg-Ile-NH2
B29: JAL-0964 (peptide)
peptide: [Occ][dA]FGL[cisHyp]LDRI-NH2
B30: JAL-0980 (peptide)
peptide: [Occ]AFGL[Thz]LDRI-NH2
modifications: not fully specified (residue 2); printed as Occ-ala-Phe-Gly-Leu-Eaz-Leu-Asp-Arg-Ile-NH2
B31: JAL-0926 (peptide)
peptide: [Occ]AFGLPL[Nva]RI-NH2
modifications: not fully specified (residue 2); printed as Occ-ala-Phe-Gly-Leu-Pro-Leu-Nva-Arg-Ile-NH2
B32: JAL-0895 (peptide)
peptide: Octanoyl-AFGLP[NMeL]DRI-NH2
modifications: not fully specified (some residues); printed as Occ-ala-Phe-Gly-Leu-Pro-Nml-Asp-Arg-Ile-NH2
B33: JAL-0896 (peptide)
peptide: Octanoyl-AFGLP[tBuAla]DRI-NH2
modifications: not fully specified (some residues); printed as Occ-ala-Phe-Gly-Leu-Pro-Npg-Asp-Arg-Ile-NH2
B34: JAL-0951 (peptide)
peptide: [Occ]GFGLPLDRI-NH2
B35: JAL-0966 (peptide)
peptide: [Occ][dP][NMeF]GLPLDRI-NH2
B36: JAL-0957 (peptide)
peptide: [Occ][dP][NMeF]GLP[NMeL]DRI-NH2
B37: JAL-0927 (peptide)
peptide: [Occ]AFGLPLVRI-NH2
modifications: not fully specified (residue 2); printed as Occ-ala-Phe-Gly-Leu-Pro-Leu-Val-Arg-Ile-NH2

Target: T1, natriuretic peptide receptor-B
Assay: cell-based or functional assay

Binder | EC50 group, cGMP in GTM-3 cells
B1 | ≤ 15 µM
B2 | ≤ 15 µM
B3 | ≤ 15 µM
B4 | ≤ 15 µM
B5 | ≤ 5 µM
B6 | ≤ 15 µM
B7 | ≤ 15 µM
B8 | ≤ 15 µM
B9 | ≤ 5 µM
B10 | ≤ 15 µM
B11 | ≤ 5 µM
B12 | ≤ 5 µM
B13 | ≤ 5 µM
B14 | ≤ 15 µM
B15 | ≤ 15 µM
B16 | ≤ 5 µM
B17 | ≤ 15 µM
B18 | ≤ 15 µM
B19 | ≤ 15 µM

Binder | EC50 group, cGMP in GTM-3 cells
B20 | ≤ 15 µM
B21 | ≤ 15 µM
B22 | ≤ 15 µM
B23 | ≤ 15 µM
B24 | ≤ 15 µM
B25 | ≤ 5 µM
B26 | ≤ 15 µM
B27 | ≤ 15 µM
B28 | ≤ 15 µM
B29 | ≤ 15 µM
B30 | ≤ 15 µM
B31 | ≤ 15 µM
B32 | ≤ 5 µM
B33 | ≤ 15 µM
B34 | ≤ 15 µM
B35 | ≤ 15 µM
B36 | ≤ 15 µM
B37 | ≤ 15 µM
